A value given as a limit tells only on which side of the number the result lay.

The record followed here is paper PMC5681266.

Assay [1] deals with atypical chemokine receptor 3 (human (endogenous in hPPAEC)) (UniProt P25106).
For assay [2], the target named is chemokine (C-X-C) motif receptor (CXCR) 4 (human (endogenous in hPPAEC)) (UniProt P61073).
UniProt P61073, sequence (P61073 whole entry): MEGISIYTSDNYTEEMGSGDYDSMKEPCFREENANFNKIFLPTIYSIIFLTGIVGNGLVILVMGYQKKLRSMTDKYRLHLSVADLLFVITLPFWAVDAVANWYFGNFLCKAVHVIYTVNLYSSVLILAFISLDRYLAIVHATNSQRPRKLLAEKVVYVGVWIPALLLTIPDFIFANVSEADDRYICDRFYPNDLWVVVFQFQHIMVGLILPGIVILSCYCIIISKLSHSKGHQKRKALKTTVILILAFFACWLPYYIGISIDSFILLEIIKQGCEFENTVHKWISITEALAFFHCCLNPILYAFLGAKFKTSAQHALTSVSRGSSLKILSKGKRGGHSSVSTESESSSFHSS

UniProt P25106, sequence (P25106 whole entry): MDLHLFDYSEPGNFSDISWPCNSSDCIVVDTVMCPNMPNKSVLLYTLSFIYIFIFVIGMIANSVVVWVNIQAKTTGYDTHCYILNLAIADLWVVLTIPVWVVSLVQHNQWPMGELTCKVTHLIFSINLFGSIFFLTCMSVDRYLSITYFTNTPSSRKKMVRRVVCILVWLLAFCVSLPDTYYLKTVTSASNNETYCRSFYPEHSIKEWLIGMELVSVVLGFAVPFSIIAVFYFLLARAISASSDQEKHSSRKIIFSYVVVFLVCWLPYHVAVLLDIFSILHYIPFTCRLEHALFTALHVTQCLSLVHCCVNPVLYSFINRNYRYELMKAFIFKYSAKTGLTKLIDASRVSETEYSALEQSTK

In assay [1], “CXCL12 K27A/R41A/R47A (from UniProt P48061-2 22-89) (ligand)” showed an EC50 of β-arrestin 2 recruitment to ACKR3, Presto-Tango (Tango plasmid in HTLA cells) of 1.2 nM and an efficacy (top plateau) of β-arrestin 2 recruitment to ACKR3, Presto-Tango, % of CXCL12α of 83%. In assay [2], this substance showed an EC50 of β-arrestin 2 recruitment to CXCR4, Presto-Tango (Tango plasmid in HTLA cells) of 145 nM and an efficacy (top plateau) of β-arrestin 2 recruitment to CXCR4, Presto-Tango, % of CXCL12α of 111%.
Regarding “CXCL12 R47E (from UniProt P48061-2 22-89) (ligand)”, in assay [1], the EC50 of β-arrestin 2 recruitment to ACKR3, Presto-Tango (Tango plasmid in HTLA cells) came to 0.4 nM and the efficacy (top plateau) of β-arrestin 2 recruitment to ACKR3, Presto-Tango, % of CXCL12α stood at 86%. In assay [2], this substance showed an EC50 of β-arrestin 2 recruitment to CXCR4, Presto-Tango (Tango plasmid in HTLA cells) of 127 nM and an efficacy (top plateau) of β-arrestin 2 recruitment to CXCR4, Presto-Tango, % of CXCL12α of 105%.
For “CXCL12 S-S4V, a protease resistant mutant (from UniProt P48061-2 22-89) (ligand)”, in that order: 0.7 nM, 88%, 75 nM and 117%.
With “CXCL12_(1), engineered constitutively monomeric CXCL12 variant (from UniProt P48061-2 22-89) (ligand)”, in assay [1], the EC50 of β-arrestin 2 recruitment to ACKR3, Presto-Tango (Tango plasmid in HTLA cells) stood at 5.6 nM and the efficacy (top plateau) of β-arrestin 2 recruitment to ACKR3, Presto-Tango, % of CXCL12α worked out at 98%. In assay [2], this substance had an EC50 of β-arrestin 2 recruitment to CXCR4, Presto-Tango (Tango plasmid in HTLA cells) of 27 nM and an efficacy (top plateau) of β-arrestin 2 recruitment to CXCR4, Presto-Tango, % of CXCL12α of 103%.
The matching figures for “CXCL12_(2), disulfide-locked dimeric CXCL12 variant (from UniProt P48061-2 22-89) (ligand)”: 8.8 nM, 87%, 2.4 nM and 90%.
The matching figures for “CXCL12β (from UniProt P48061 22-93) (ligand)”: 1.5 nM, 103%, 1.4 nM and 73%.
In assay [1], “N-terminal truncated CXCL12 (3–68) (from UniProt P48061-2 24-89) (domain or fragment)” displayed an EC50 of β-arrestin 2 recruitment to ACKR3, Presto-Tango (Tango plasmid in HTLA cells) of 13.3 nM and an efficacy (top plateau) of β-arrestin 2 recruitment to ACKR3, Presto-Tango, % of CXCL12α of 19%. In assay [2], the EC50 of β-arrestin 2 recruitment to CXCR4, Presto-Tango (Tango plasmid in HTLA cells) was > 1000 nM.
